Laboratory results as given in paper PMC3533786 (Molecular Microbiology, 2012).

Legend:
[1] = target: Rap1a (Resistance associated protein 1a), without its N-terminal signal peptide, His6-tagged (Serratia marcescens Db10); experiment: SEC
[2] = target: Rap2a (Resistance associated protein 2a), without its N-terminal signal peptide, His6-tagged (Serratia marcescens Db10); experiment: SEC
[3] = target: Rap2b (Resistance associated protein 2b), without its N-terminal signal peptide, His6-tagged (Serratia marcescens Db10); experiment: SEC
[4] = target: Rap1a (Resistance associated protein 1a), without its N-terminal signal peptide, His6-tagged (Serratia marcescens Db10); experiment: SEC + other: quantitative in-gel SYPRO Orange staining
[5] = target: Tse1 (Pseudomonas aeruginosa) (UniProt Q9I2Q1); conditions: cited from earlier work
SEC = target: the molecule itself; experiment: SEC

With “Rap1a (Resistance associated protein 1a), without its N-terminal signal peptide, His6-tagged (natural protein)” the stoichiometry N [1] was 2.

Work on “Rap2a (Resistance associated protein 2a), without its N-terminal signal peptide, His6-tagged (natural protein)” yielded a stoichiometry N [2] of 2.

“Rap2b (Resistance associated protein 2b), without its N-terminal signal peptide, His6-tagged (natural protein)” showed a stoichiometry N [3] of 2.

With “Ssp1 (Secreted small protein 1), His6-tagged recombinant (natural protein)” the stoichiometry N (Ssp1 per Rap1a (molar)) [4] was 1.

In the case of Tsi1 (from UniProt Q9I2Q0), the Kd [5] is listed as 3 nM.

B1: Rap1b (Resistance associated protein 1b), without its N-terminal signal peptide, His6-tagged (natural protein)
chain: APIQDPVAFIKQMPYHQVVKELALSRCLAQVSDSDKAFSLDAARTANAMREWMPFDIESGDEKINVLIDKYKSRINEFHSETKDKSQGVTLNCLRLYHSPELDKLSRQLIAGNPDRTWNQDNAK
modifications: disulphide bond Cys54-Cys120
With B1 the “stoichiometry N” value (SEC) was 2.
